B1: t44OMe (ssRNA)
RNA: CGGAAUCAGUGAAUGCUUAUACAUCCG
modifications: 2'-F pyrimidines, 2'-OMe purines except two 2'-OH purines
B2: t22e (ssRNA)
RNA: GGUAGGAAGAAUUGGAAGCGCT
modifications: 2'-F pyrimidines, 2'-OH purines, 3'-3' dT cap [22 (3'-3' dT cap); 2'-F pyrimidines 3,12,13,19,21]
B3: t2 (ssRNA)
RNA: GGCGAACCGAUGGAAUUUUUGGACGCUCGCCT
modifications: 2'-F pyrimidines, 2'-OH purines, 3'-3' dT cap [32 (3'-3' dT cap); 2'-F pyrimidines 3,7,8,11,16,17,18,19,20,24,26,27,28,30,31]
B4: t22 (ssRNA)
RNA: GACGAUGCGGUAGGAAGAAUUGGAAGCGCT
modifications: 2'-F pyrimidines, 2'-OH purines, 3'-3' dT cap [30 (3'-3' dT cap); 2'-F pyrimidines 3,6,8,11,20,21,27,29]
B5: t22OMe (OH-12,22) (ssRNA)
RNA: GACGAUGCGGUAGGAAGAAUUGGAAGCGC
modifications: 2'-F pyrimidines, 2'-OMe purines except 2'-OH at A12, G22

Assays:
[1] = biological target: T1, VEGF165 (Homo sapiens, UniProt P15692-4 P15692-4:27-191); test: filter; EDTA, no divalents; Mg2+ does not rescue, Ca2+ fully restores; settings: tags: R&D Systems, expressed in Sf21 insect cells, carrier-free; chain copies: 2
T1 sequence (P15692 other isoform, or with tags, fused parts or gaps): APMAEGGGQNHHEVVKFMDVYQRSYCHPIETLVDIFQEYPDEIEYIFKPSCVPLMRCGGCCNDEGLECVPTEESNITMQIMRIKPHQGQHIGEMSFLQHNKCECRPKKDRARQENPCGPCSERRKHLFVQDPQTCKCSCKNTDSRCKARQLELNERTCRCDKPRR

[2] = biological target: T1, VEGF165; test: filter; 37 C; settings: tags: R&D Systems, expressed in Sf21 insect cells, carrier-free; chain copies: 2
Procedure: Nucleic Acid Ligands radiolabeled during transcription by incorporation of α-[^32P]-labeled NTPs, or after synthesis using γ-[^32P]-ATP and T4 polynucleotide kinase, were incubated in low concentration (between 20 and 70 pM) with varying concentrations of VEGF or other growth factors at 37° C. for 15 minutes. Incubations were in TBS, PBS, or HEPES-buffered saline (HBS), pH 7.4, with or without the addition of supplemental divalent cations. Samples were passed through prewashed 0.45μ Type HA filters (Millipore) followed by a 5–10 ml wash with binding buffer. Filters were immersed in scintillant and counted to quantitate the amount of protein-bound RNA retained by each filter. The equilibrium dissociation constant (K_D) of Nucleic Acid Ligand binding to a specific protein was calculated from thc data points as described in Green et al. (1996) Biochem. 35: 14413–14424.

| Binder | Kd [1] [nM] | Kd [2] [nM] |
| --- | --- | --- |
| B1 | > 100 |  |
| B2 |  | 0.2 |
| B3 |  | 0.02 |
| B4 |  | 0.07 |
| B5 |  | 0.09 |

Source: patent US6051698, “Vascular endothelial growth factor (VEGF) nucleic acid ligand complexes”
